Article doi:10.1101/2020.10.25.354548 (bioRxiv, 2020)

Biological target: SARS-CoV-2 spike protein receptor binding domain (RBD) (SARS-CoV-2, UniProt P0DTC2)
Experiment: ELISA

B1: bovine ACE2-Fc (bovine angiotensin I converting enzyme 2 fused to human IgG1 Fc) (Fc fusion)
chain: QSTTEEQAKTFLEKFNHEAEDLSYQSSLASWNYNTNITDENVQKMNEARAKWSAFYEEQSRMAKTYSLEEIQNLTLKRQLKALQHSGTSALSAEKSKRLNTILNKMSTIYSTGKVLDPNTQECLALEPGLDDIMENSRDYNRRLWAWEGWRAEVGKQLRPLYEEYVVLENEMARANNYEDYGDYWRGDYEVTGAGDYDYSRDQLMKDVERTFAEIKPLYEQLHAYVRAKLMHTYPSYISPTGCLPAHLLGDMWGRFWTNLYSLTVPFEHKPSIDVTEKMENQSWDAERIFKEAEKFFVSISLPYMTQGFWDNSMLTEPGDGRKVVCHPTAWDLGKGDFRIKMCTKVTMDDFLTAHHEMGHIQYDMAYAAQPYLLRNGANEGFHEAVGEIMSLSAATPHYLKALGLLAPDFHEDNETEINFLLKQALTIVGTLPFTYMLEKWRWMVFKGEIPKQQWMEKWWEMKREIVGVVEPLPHDETYCDPACLFHVAEDYSFIRYYTRTIYQFQFHEALCKTAKHEGALFKCDISNSTEAGQRLLQMLRLGKSEPWTLALENIVGIKTMDVKPLLNYFEPLFTWLKEQNRNSFVGWSTEWTPYSDQSIKVRISLKSALGENAYEWNDNEMYLFQSSVAYAMRKYFSEARNETVLFGEDNVWVSDKKPRISFKFFVTSPNNVSDIIPRTEVENAIRLSRDRINDVFQLDDNSLEFLGIQPTLGPPYEPPVT
EC50: 1.3 nM
